Here are results for eleven molecules from patent US8663655B2, “Method for transforming a bacterium belonging to the Streptococcus genus by natural competence” (Dupont Nutrition Biosciences APS, dated 2014).

Read-outs that look alike come from different tables or passages of the source. A value given as a limit tells only on which side of the number the result lay.

In experiment [1] the target is STER-0316 homologue of S. thermophilus CNRZ1066 (Streptococcus thermophilus CNRZ1066).
Experiment [2] has the same target. The source holds these as a separate data set.
Experiment [3] deals with STER-0316 homologue of S. thermophilus LMG18311 (Streptococcus thermophilus LMG18311).
In experiment [4] the target is T1, transcriptional regulator (Rgg) STER-0316 (Streptococcus thermophilus LMD-9).
T1 chain: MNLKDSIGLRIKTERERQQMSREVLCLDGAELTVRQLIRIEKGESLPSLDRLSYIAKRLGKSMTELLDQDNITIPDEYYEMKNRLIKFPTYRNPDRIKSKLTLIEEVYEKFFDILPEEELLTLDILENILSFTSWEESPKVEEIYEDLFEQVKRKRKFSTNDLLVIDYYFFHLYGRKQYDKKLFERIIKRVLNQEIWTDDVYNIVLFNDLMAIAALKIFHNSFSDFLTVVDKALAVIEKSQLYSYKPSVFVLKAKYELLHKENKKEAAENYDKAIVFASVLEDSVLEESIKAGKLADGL
Nature of the experiment: cell-based or functional assay.

Experiment [5] has as its target STER-0316 homologue of S. thermophilus CNRZ1066 (Streptococcus thermophilus CNRZ1066). This is another data set of the same source.
Experiment [6] deals with STER-0316 homologue of S. thermophilus LMG18311 (Streptococcus thermophilus LMG18311). This is another data set of the same source.

Molecule synthetic peptide PYFTGCL displayed a Transformation rate of S. thermophilus CNRZ1066 with peptide addition (1 µM) in experiment [1] of 3.48e-07.

B1: synthetic peptide PYFAGCL (peptide)
peptide: PYFAGCL
The molecule B1 yielded a Transformation rate of S. thermophilus CNRZ1066 with peptide addition (1 µM) in experiment [2] of 0.000369. The Transformation rate of S. thermophilus LMG18311 with peptide addition (1 µM) in experiment [3] turned out to be 0.000317. The “Transformation rate with peptide addition (1 µM)” value in experiment [4] turned out to be 0.00478.

B2: synthetic peptide ILPYFAGCL (peptide)
peptide: ILPYFAGCL
As to B2, the “Transformation rate with peptide addition (1 µM)” value in experiment [4] is 0.00342.

B3: synthetic peptide ILPYFAG (peptide)
peptide: ILPYFAG
As to B3, the “Transformation rate with peptide addition (1 µM)” value in experiment [4] was under 1e-08.

B4: synthetic peptide PYFAG (peptide)
peptide: PYFAG
As for B4, in experiment [4], the “Transformation rate with peptide addition (1 µM)” value was under 1e-08.

B5: synthetic peptide LPYFAGC (peptide)
peptide: LPYFAGC
Regarding B5, the “Transformation rate with peptide addition (1 µM)” value in experiment [4] is under 1e-08.

B6: synthetic peptide ILPYFAGC (peptide)
peptide: ILPYFAGC
On to B6, for which the “Transformation rate with peptide addition (1 µM)” value in experiment [4] is under 1e-08.

B7: synthetic peptide AILPYFAGC (peptide)
peptide: AILPYFAGC
As to B7, in experiment [4], the “Transformation rate with peptide addition (1 µM)” value is under 1e-08.

B8: synthetic peptide AILPYFAGCL (peptide)
peptide: AILPYFAGCL
For the molecule B8, the “Transformation rate with peptide addition (1 µM)” value in experiment [4] stood at 0.00221.

B9: synthetic peptide PYFAGC (peptide)
peptide: PYFAGC
In the case of B9, in experiment [4], the “Transformation rate with peptide addition (1 µM)” value was under 1e-08.

B10: synthetic peptide LPYFAGCL (peptide)
peptide: LPYFAGCL
For the molecule B10, the Transformation rate of S. thermophilus CNRZ1066 with peptide addition (1 µM), donor pGIUD0855cat in experiment [5] came to 0.03. In experiment [6], this molecule showed a Transformation rate of S. thermophilus LMG18311 with peptide addition (1 µM), donor pGIUD0855cat of 0.13. In addition, the “Transformation rate with peptide addition (1 µM)” value in experiment [4] amounted to 0.00318.
